Test results taken from patent publication US20060263802A1 (CRUCELL HOLLAND B V, published 2006).

Columns and labels:
Assay in all cases: PEPSCAN ELISA, looped peptide, 10 ug/ml
[1] = molecular target: looped/cyclic peptide … (rabies virus strain ERA)
[2] = molecular target: looped/cyclic peptide … (rabies virus strain ERA); remark: listed apart in the source
[3] = molecular target: looped/cyclic peptide … (rabies virus strain ERA); remark: listed apart in the source
[4] = molecular target: looped/cyclic peptide … (rabies virus strain ERA); remark: listed apart in the source
[5] = molecular target: looped/cyclic peptide … (rabies virus strain ERA); remark: listed apart in the source
[6] = molecular target: looped/cyclic peptide ADPSTVFKDGDEAED (rabies virus strain ERA)
[7] = molecular target: looped/cyclic peptide … (rabies virus strain ERA); remark: listed apart in the source
[8] = molecular target: looped/cyclic peptide … (rabies virus strain ERA); remark: listed apart in the source
[9] = molecular target: looped/cyclic peptide … (rabies virus strain ERA); remark: listed apart in the source
[10] = molecular target: looped/cyclic peptide … (rabies virus strain ERA); remark: listed apart in the source
[11] = molecular target: looped/cyclic peptide … (rabies virus strain ERA); remark: listed apart in the source
[12] = molecular target: looped/cyclic peptide … (rabies virus strain ERA); remark: listed apart in the source
[13] = molecular target: looped/cyclic peptide … (rabies virus strain ERA); remark: listed apart in the source
[14] = molecular target: looped/cyclic peptide … (rabies virus strain ERA); remark: listed apart in the source
[15] = molecular target: looped/cyclic peptide … (rabies virus strain ERA); remark: listed apart in the source
[16] = molecular target: looped/cyclic peptide … (rabies virus strain ERA); remark: listed apart in the source
[17] = molecular target: looped/cyclic peptide … (rabies virus strain ERA); remark: listed apart in the source
[18] = molecular target: looped/cyclic peptide … (rabies virus strain ERA); remark: listed apart in the source
[19] = molecular target: looped/cyclic peptide … (rabies virus strain ERA); remark: listed apart in the source
[20] = molecular target: looped/cyclic peptide … (rabies virus strain ERA); remark: listed apart in the source
[21] = molecular target: looped/cyclic peptide … (rabies virus strain ERA); remark: listed apart in the source
[22] = molecular target: looped/cyclic peptide … (rabies virus strain ERA); remark: listed apart in the source
[23] = molecular target: looped/cyclic peptide … (rabies virus strain ERA); remark: listed apart in the source
[24] = molecular target: looped/cyclic peptide … (rabies virus strain ERA); remark: listed apart in the source
[25] = molecular target: looped/cyclic peptide … (rabies virus strain ERA); remark: listed apart in the source
[26] = molecular target: looped/cyclic peptide … (rabies virus strain ERA); remark: listed apart in the source
[27] = molecular target: looped/cyclic peptide … (rabies virus strain ERA); remark: listed apart in the source
[28] = molecular target: looped/cyclic peptide … (rabies virus strain ERA); remark: listed apart in the source
[29] = molecular target: looped/cyclic peptide … (rabies virus strain ERA); remark: listed apart in the source
[30] = molecular target: looped/cyclic peptide … (rabies virus strain ERA); remark: listed apart in the source
[31] = molecular target: looped/cyclic peptide … (rabies virus strain ERA); remark: listed apart in the source
[32] = molecular target: looped/cyclic peptide … (rabies virus strain ERA); remark: listed apart in the source
[33] = molecular target: looped/cyclic peptide … (rabies virus strain ERA); remark: listed apart in the source
[34] = molecular target: looped/cyclic peptide … (rabies virus strain ERA); remark: listed apart in the source
[35] = molecular target: looped/cyclic peptide … (rabies virus strain ERA); remark: listed apart in the source
[36] = molecular target: looped/cyclic peptide … (rabies virus strain ERA); remark: listed apart in the source
[37] = molecular target: looped/cyclic peptide … (rabies virus strain ERA); remark: listed apart in the source
[38] = molecular target: looped/cyclic peptide … (rabies virus strain ERA); remark: listed apart in the source
[39] = molecular target: looped/cyclic peptide … (rabies virus strain ERA); remark: listed apart in the source
[40] = molecular target: looped/cyclic peptide … (rabies virus strain ERA); remark: listed apart in the source
[41] = molecular target: looped/cyclic peptide … (rabies virus strain ERA); remark: listed apart in the source
[42] = molecular target: looped/cyclic peptide … (rabies virus strain ERA); remark: listed apart in the source
[43] = molecular target: looped/cyclic peptide … (rabies virus strain ERA); remark: listed apart in the source
[44] = molecular target: looped/cyclic peptide … (rabies virus strain ERA); remark: listed apart in the source
[45] = molecular target: looped/cyclic peptide … (rabies virus strain ERA); remark: listed apart in the source
[46] = molecular target: looped/cyclic peptide … (rabies virus strain ERA); remark: listed apart in the source
[47] = molecular target: looped/cyclic peptide … (rabies virus strain ERA); remark: listed apart in the source
[48] = molecular target: looped/cyclic peptide … (rabies virus strain ERA); remark: listed apart in the source
[49] = molecular target: looped/cyclic peptide … (rabies virus strain ERA); remark: listed apart in the source
[50] = molecular target: looped/cyclic peptide … (rabies virus strain ERA); remark: listed apart in the source
[51] = molecular target: looped/cyclic peptide … (rabies virus strain ERA); remark: listed apart in the source
[52] = molecular target: looped/cyclic peptide … (rabies virus strain ERA); remark: listed apart in the source
[53] = molecular target: looped/cyclic peptide … (rabies virus strain ERA); remark: listed apart in the source
[54] = molecular target: looped/cyclic peptide … (rabies virus strain ERA); remark: listed apart in the source
[55] = molecular target: looped/cyclic peptide … (rabies virus strain ERA); remark: listed apart in the source
[56] = molecular target: looped/cyclic peptide … (rabies virus strain ERA); remark: listed apart in the source
[57] = molecular target: looped/cyclic peptide … (rabies virus strain ERA); remark: listed apart in the source
[58] = molecular target: looped/cyclic peptide … (rabies virus strain ERA); remark: listed apart in the source
[59] = molecular target: looped/cyclic peptide … (rabies virus strain ERA); remark: listed apart in the source
[60] = molecular target: looped/cyclic peptide … (rabies virus strain ERA); remark: listed apart in the source
[61] = molecular target: looped/cyclic peptide … (rabies virus strain ERA); remark: listed apart in the source

B1: human monoclonal antibody CRJB (antibody, V domains shown)
VH: QITLKETGPTLVKPTQTLTLTCTFSGFSLSTSGVGVGWIRQPPGKALEWVTLIYWDDDKRYSPSLENRVTIRKDTSKNQVALTMTNMDPLDTGTYYCAHRQHISSFPWFDSWGQGTLVTVSS
VL: SYVLTQPPSVSVAPGKTARINCGGNNIEYRSVHWYQQKSGQAPVAVIYDNSDRPSGIPERFSGSKSGNTATLTISRVEAGDEADYYCQVWDISSDVVFGGGTKLTVLG
**Q.** B1 was tested. Which OD [1] did it give?
**A.** 123 OD

**Q.** What about the OD [2] of the same binder?
**A.** 92 OD

**Q.** And the OD [3]?
**A.** 93 OD

**Q.** What about the OD [4] of the same binder?
**A.** 98 OD

**Q.** And the OD [5]?
**A.** 98 OD

**Q.** And the OD [6]?
**A.** 72 OD

**Q.** What about the OD [7] of the same binder?
**A.** 76 OD

**Q.** What about the OD [8] of the same binder?
**A.** 80 OD

**Q.** What about the OD [9] of the same binder?
**A.** 94 OD

**Q.** And the OD [10]?
**A.** 91 OD

**Q.** What about the OD [11] of the same binder?
**A.** 42 OD

**Q.** What about the OD [12] of the same binder?
**A.** 106 OD

**Q.** What about the OD [13] of the same binder?
**A.** 110 OD

**Q.** What about the OD [14] of the same binder?
**A.** 104 OD

**Q.** What about the OD [15] of the same binder?
**A.** 79 OD

**Q.** What about the OD [16] of the same binder?
**A.** 85 OD

**Q.** What about the OD [17] of the same binder?
**A.** 93 OD

**Q.** What about the OD [18] of the same binder?
**A.** 92 OD

**Q.** And the OD [19]?
**A.** 93 OD

**Q.** What about the OD [20] of the same binder?
**A.** 85 OD

**Q.** And the OD [21]?
**A.** 104 OD

**Q.** And the OD [22]?
**A.** 111 OD

**Q.** What about the OD [23] of the same binder?
**A.** 85 OD

**Q.** And the OD [24]?
**A.** 118 OD

**Q.** What about the OD [25] of the same binder?
**A.** 98 OD

**Q.** And the OD [26]?
**A.** 82 OD

**Q.** What about the OD [27] of the same binder?
**A.** 107 OD

**Q.** What about the OD [28] of the same binder?
**A.** 104 OD

**Q.** And the OD [29]?
**A.** 88 OD

**Q.** What about the OD [30] of the same binder?
**A.** 93 OD

**Q.** And the OD [31]?
**A.** 83 OD

**Q.** What about the OD [32] of the same binder?
**A.** 76 OD

**Q.** And the OD [33]?
**A.** 83 OD

**Q.** And the OD [34]?
**A.** 105 OD

**Q.** What about the OD [35] of the same binder?
**A.** 78 OD

**Q.** And the OD [36]?
**A.** 79 OD

**Q.** And the OD [37]?
**A.** 104 OD

**Q.** And the OD [38]?
**A.** 79 OD

**Q.** What about the OD [39] of the same binder?
**A.** 86 OD

**Q.** And the OD [40]?
**A.** 91 OD

**Q.** What about the OD [41] of the same binder?
**A.** 86 OD

**Q.** What about the OD [42] of the same binder?
**A.** 90 OD

**Q.** What about the OD [43] of the same binder?
**A.** 85 OD

**Q.** What about the OD [44] of the same binder?
**A.** 100 OD

**Q.** What about the OD [45] of the same binder?
**A.** 104 OD

**Q.** What about the OD [46] of the same binder?
**A.** 107 OD

**Q.** What about the OD [47] of the same binder?
**A.** 93 OD

**Q.** And the OD [48]?
**A.** 100 OD

**Q.** And the OD [49]?
**A.** 90 OD

**Q.** And the OD [50]?
**A.** 87 OD

**Q.** What about the OD [51] of the same binder?
**A.** 97 OD

**Q.** What about the OD [52] of the same binder?
**A.** 110 OD

**Q.** And the OD [53]?
**A.** 99 OD

**Q.** What about the OD [54] of the same binder?
**A.** 134 OD

**Q.** And the OD [55]?
**A.** 96 OD

**Q.** What about the OD [56] of the same binder?
**A.** 116 OD

**Q.** What about the OD [57] of the same binder?
**A.** 99 OD

**Q.** What about the OD [58] of the same binder?
**A.** 85 OD

**Q.** And the OD [59]?
**A.** 103 OD

**Q.** And the OD [60]?
**A.** 108 OD

**Q.** What about the OD [61] of the same binder?
**A.** 106 OD
